Results as given in patent US20190256586A1 (Johns Hopkins, published 2019).

Molecular target: T1, recombinant PSSP17 (117 amino acid fragment of P. falciparum PSSP17 with a HIS tag, expressed in E. coli) (Plasmodium falciparum)
T1 construct: Antigen used to raise 10E2B7 and 27C9B5; spiked into naive human saliva in the lateral flow assays; also called recombinant PfPSSP17; recombinant subunit PSSP17; not shown: HIS tag from the expression vector
T1 chain: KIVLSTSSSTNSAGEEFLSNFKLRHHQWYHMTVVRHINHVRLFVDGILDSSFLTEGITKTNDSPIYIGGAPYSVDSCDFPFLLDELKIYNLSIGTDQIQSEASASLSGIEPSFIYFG
Experiment: sandwich lateral flow immunoassay (gRAD strip, streptavidin test line); lower limit of detection of recombinant PSSP17 printed as 1-5 ng/mL

B1: anti-PSSP17 mAb 10E2.B7 IgG (antibody, V domains shown)
VH: EVQLVESGGDLVKPGGSLKLSCAASGFTFSSYGMSWVRQTPDKRLEWVATISSGGSYIYYPDSMKGRFTMSRDNAKNTLYLQMSSLKSEDTAMYYCAREERDWLAYWGQGTLVTVSA
VL: DVVMTQSPLSLPVSLGDQASISCRSSQSLIHNNGDIYVHWYLQKPGQSPKLLIYKVSNRFSGVPDRFSGSGSGTDFTFKISRVEAEDLGVYFCSQSSHVPPTFGGGTKLEIK
notes: Used biotinylated (20:1 biotin:antibody) as the capture antibody of the SMAART-PSSP17 lateral flow assay; also called biotinylated anti-PSSP17 10E2.B7; Bio-Ab
B1: binds.

B2: anti-PF3D7_1218800 mAb 27C9.B5 IgG (antibody, V domains shown)
VH: QVQVRQSGAEVVRPGTSVRVSCKTSGYAFTDYLIEWVKQRPGQGLEWIGVINPVRGTTNYSEKFKGKATLTADKSSGTAYMQFYSLTSDDSAVYFCARSRGSDGFPYWGQGTLVTVSA
VL: DVLMTQTPLSLPVSLGDQASISCRSSQSIVHSNGYTYLEWYLQKPGQSPKLLIYKLSNRFSGVPDRFSGSGSGTDFTLKISRVEAEDLGVYYCFQGSHIPYTFGGGTKLEIK
notes: Used covalently coupled to Europium(III)-chelate carboxylate polystyrene microparticles as the detection antibody of the SMAART-PSSP17 lateral flow assay; also called EuChelate nanoparticle-conjugated anti-PSSP17 27C9.B5 mAb; MP-27C9.B5 conjugate
B2: binds.
